This note sets out measurements from patent publication US20200362018A1 (YEDA RESEARCH AND DEVELOPMENT, published 2020).

In assay [1] the target is T1, T. acidophilum (Archaea) 20S proteasome (T. acidophilum, UniProt P25156 1-233; P28061 9-211).
T1 construct: Assembled in vitro as α7β7β7α7; also called archaeal 20S proteasome; 20S proteasome from T. acidophilum
Nature of the assay: native MS with MS/MS of the isolated 20S proteasome peak.
Method: Nanoflow electrospray ionization MS and tandem MS experiments were conducted under non-denaturing conditions on a QToF Q-Star Elite instrument (MDS Sciex, Canada), modified for improved transmission of large non-covalent complexes, or an Q-Exactive Plus Orbitrap EMR (ThermoFisher Scientific). Before MS analysis, 20 μl of up to 100 mM sample was buffer exchanged into 0.5-1 M ammonium acetate pH 7.5, using Bio-Spin columns (Bio-Rad). Sample concentrations were determined by ultraviolet absorbance. Assays were performed in positive ion mode and conditions were optimized to enable the ionization and removal of adducts, without disrupting the non-covalent interactions of the proteins tested. In tandem MS experiments, the relevant m/z values were isolated and argon gas was admitted to the collision cell. […] The following experimental parameters were used on the QToF Q-Star Elite instrument: capillary voltage up to 1.1 kV, declustering potential up to 220 V, focusing potential up to 240 V, a second declustering potential of 15 V, collision energy of between 20 and 200 V and an MCP of 2,350 V. The following experimental conditions were used on the Q-Exactive Plus Orbitrap EMR: capillary voltage 1.7 kV, MS spectra were recorded at low resolution (5000), and the HCD cell voltage was set to 20-50 V, at trapping gas pressure setting of 3.9.

Another assay concerns the target α-synuclein (UniProt P37840 1-140). Description: native mass spectrometry of α-synuclein incubated with the CCR.
The target in assay [2] is T1, T. acidophilum (Archaea) 20S proteasome. Nature of the assay: peptide array of overlapping T. acidophilum 20S proteasome peptides.

T1 sequence (P25156 whole entry, chain 1 of 2): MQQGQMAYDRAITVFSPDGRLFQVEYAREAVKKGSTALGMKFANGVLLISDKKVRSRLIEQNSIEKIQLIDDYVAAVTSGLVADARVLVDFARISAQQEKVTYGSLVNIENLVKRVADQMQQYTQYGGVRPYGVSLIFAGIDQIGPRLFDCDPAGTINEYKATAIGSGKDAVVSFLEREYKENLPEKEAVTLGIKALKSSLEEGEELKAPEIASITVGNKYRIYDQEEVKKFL
T1 sequence (P28061 9-211, chain 2 of 2): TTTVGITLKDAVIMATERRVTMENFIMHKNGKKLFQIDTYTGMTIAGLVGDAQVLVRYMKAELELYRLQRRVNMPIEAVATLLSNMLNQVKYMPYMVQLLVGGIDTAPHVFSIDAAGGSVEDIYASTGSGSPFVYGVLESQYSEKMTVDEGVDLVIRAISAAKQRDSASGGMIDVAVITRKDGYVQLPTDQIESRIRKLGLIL
Method for α-synuclein: Nanoflow electrospray ionization MS and tandem MS experiments were conducted under non-denaturing conditions on a QToF Q-Star Elite instrument (MDS Sciex, Canada), modified for improved transmission of large non-covalent complexes, or an Q-Exactive Plus Orbitrap EMR (ThermoFisher Scientific). Before MS analysis, 20 μl of up to 100 mM sample was buffer exchanged into 0.5-1 M ammonium acetate pH 7.5, using Bio-Spin columns (Bio-Rad). Sample concentrations were determined by ultraviolet absorbance. Assays were performed in positive ion mode and conditions were optimized to enable the ionization and removal of adducts, without disrupting the non-covalent interactions of the proteins tested. In tandem MS experiments, the relevant m/z values were isolated and argon gas was admitted to the collision cell. […] The following experimental parameters were used on the QToF Q-Star Elite instrument: capillary voltage up to 1.1 kV, declustering potential up to 220 V, focusing potential up to 240 V, a second declustering potential of 15 V, collision energy of between 20 and 200 V and an MCP of 2,350 V. The following experimental conditions were used on the Q-Exactive Plus Orbitrap EMR: capillary voltage 1.7 kV, MS spectra were recorded at low resolution (5000), and the HCD cell voltage was set to 20-50 V, at trapping gas pressure setting of 3.9. […]

B1: human DJ-1 (other, UniProt Q99497 1-189, looked up)
chain: MASKRALVILAKGAEEMETVIPVDVMRRAGIKVTVAGLAGKDPVQCSRDVVICPDASLEDAKKEGPYDVVVLPGGNLGAQNLSESAAVKEILKEQENRKGLIAAICAGPTALLAHEIGFGSKVTTHPLAKDKMMNGGHYTYSENRVEKDGLILTSRGPGTSFEFALAIVEALNGKEVAAQVKAPLVLKD
notes: also called PARK7
For B1, the binding result in assay [1] is listed as “binds”.

B2: human CBR3 (recombinant, His tag removed) (enzyme, UniProt O75828 1-277, looked up)
chain: MSSCSRVALVTGANRGIGLAIARELCRQFSGDVVLTARDVARGQAAVQQLQAEGLSPRFHQLDIDDLQSIRALRDFLRKEYGGLNVLVNNAAVAFKSDDPMPFDIKAEMTLKTNFFATRNMCNELLPIMKPHGRVVNISSLQCLRAFENCSEDLQERFHSETLTEGDLVDLMKKFVEDTKNEVHEREGWPNSPYGVSKLGVTVLSRILARRLDEKRKADRILVNACCPGPVKTDMDGKDSIRTVEEGAETPVYLALLPPDATEPQGQLVHDKVVQNW
In the case of B2, the results for the binding result (in the assay with α-synuclein; in assay [2]) were “no binding” and “binds”, respectively.

B3: human PGDH with a C-terminal 6His tag (enzyme)
chain: MHVNGKVALVTGAAQGIGRAFAEALLLKGAKVALVDWNLEAGVQCKAALDEQFEPQKTLFIQCDVADQQQLRDTFRKVVDHFGRLDILVNNAGVNNEKNWEKTLQINLVSVISGTYLGLDYMSKQNGGEGGIIINMSSLAGLMPVAQQPVYCASKHGIVGFTRSAALAANLMNSGVRLNAICPGFVNTAILESIEKEENMGQYIEYKDHIKDMIKYYGILDPPLIANGLITLIEDDALNGAIMKITTSKGIHFQDYDTTPFQAKTQ
notes: also called PGDH-His; not shown: C-terminal 6His tag
B3: the binding result in the assay with α-synuclein is listed as “no binding”.
